Experimental data taken from publication PMC13054468 (Analytical chemistry, 2025).
Several values for one entry are separate records, joined by “and”; a condition that tells them apart may be missing. Identical values can stand only once.

B1: cholera toxin B (natural protein)
chain: TPQNITDLCAEYHNTQIYTLNDKIFSYTESLAGKREMAIITFKNGAIFQVEVPGSQHIDSQKKAIERMKDTLRIAYLTEAKVEKLCVWNNKTPHAIAAISMAN
notes: also called CTB

Tests used:
[1] = biological target: hepatitis B virus (HBV) capsid protein (hepatitis B virus) (UniProt P03146); test: native MS
[2] = biological target: the molecule itself; test: native MS

Molecule	stoichiometry N [1]	binding result [2]
hepatitis B virus (HBV) capsid protein (from UniProt P03146 1-183) (natural protein)	240 and 180	
B1		binds
